The text below walks through data of article PMC10399232.

The assay deals with eIF4E (mouse (endogenous in cerebellum)) (UniProt P63073). The assay can be described thus: pull-down; m7GTP beads (30 ul) incubated with 500 ug mouse cerebellar lysate for 1 h at 4 C; lysis buffer 150 mM NaCl, 10 mM MgCl2, 30 mM tris pH 8.0, 1 mM DTT, 1.5% Triton X-100; washed three times in 100 mM KCl, 50 mM tris pH 7.4, 5 mM MgCl2, 0.5% Triton X-100; eIF4E and eIF4G blotted; eIF4G/eIF4E ratio normalized to the WT mean; CYFIP1 OE and WT mice.
Chain of UniProt P63073 (P63073 whole entry): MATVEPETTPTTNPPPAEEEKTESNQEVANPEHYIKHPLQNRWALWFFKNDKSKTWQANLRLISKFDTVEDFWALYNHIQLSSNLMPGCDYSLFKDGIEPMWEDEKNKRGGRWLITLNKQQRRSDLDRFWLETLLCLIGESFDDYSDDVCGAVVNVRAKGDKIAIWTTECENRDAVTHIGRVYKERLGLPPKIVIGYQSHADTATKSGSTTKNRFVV

Consider eIF4G (natural protein), for which the eIF4G/eIF4E binding ratio in CYFIP1 OE mice, normalized to WT mean (fold of WT mean) was found to be 1.68.
